We go through 20 molecules from patent US20210388087A1 (Chugai, published 2021).

First the molecules themselves.
B1: dBBDu183H P61V/dBBDu072L (antibody, name in Kabat numbering, V domains shown)
VH: QVQLVESGGGLVQPGRSLRLSCAASGFTFSNAWMHWVRQAPGKGLEWVAQIKDKGNAYAAYYAVSVKGRFTISRDDSKNSIYLQMNSLKTEDTAVYYCHYVHYASASTVLPAFGVDAWGQGTTVTVSS
VL: DIVMTQSPLSLPVTPGEPASISCQASQELVHMNRNTYLHWYQQKPGQAPRLLIYKVSNRFPGVPDRFSGSGSGTDFTLKISRVEAEDVGVYYCAQGTSVPFTFGQGTKLEIK
B2: dBBDu183H A98R/dBBDu072L (antibody, name in Kabat numbering, V domains shown)
VH: QVQLVESGGGLVQPGRSLRLSCAASGFTFSNAWMHWVRQAPGKGLEWVAQIKDKGNAYAAYYAPSVKGRFTISRDDSKNSIYLQMNSLKTEDTAVYYCHYVHYRSASTVLPAFGVDAWGQGTTVTVSS
VL: DIVMTQSPLSLPVTPGEPASISCQASQELVHMNRNTYLHWYQQKPGQAPRLLIYKVSNRFPGVPDRFSGSGSGTDFTLKISRVEAEDVGVYYCAQGTSVPFTFGQGTKLEIK
B3: dBBDu183H A98T/dBBDu072L (antibody, name in Kabat numbering, V domains shown)
VH: QVQLVESGGGLVQPGRSLRLSCAASGFTFSNAWMHWVRQAPGKGLEWVAQIKDKGNAYAAYYAPSVKGRFTISRDDSKNSIYLQMNSLKTEDTAVYYCHYVHYTSASTVLPAFGVDAWGQGTTVTVSS
VL: DIVMTQSPLSLPVTPGEPASISCQASQELVHMNRNTYLHWYQQKPGQAPRLLIYKVSNRFPGVPDRFSGSGSGTDFTLKISRVEAEDVGVYYCAQGTSVPFTFGQGTKLEIK
B4: dBBDu183H A98H/dBBDu072L (antibody, name in Kabat numbering, V domains shown)
VH: QVQLVESGGGLVQPGRSLRLSCAASGFTFSNAWMHWVRQAPGKGLEWVAQIKDKGNAYAAYYAPSVKGRFTISRDDSKNSIYLQMNSLKTEDTAVYYCHYVHYHSASTVLPAFGVDAWGQGTTVTVSS
VL: DIVMTQSPLSLPVTPGEPASISCQASQELVHMNRNTYLHWYQQKPGQAPRLLIYKVSNRFPGVPDRFSGSGSGTDFTLKISRVEAEDVGVYYCAQGTSVPFTFGQGTKLEIK
B5: dBBDu183H A98Y/dBBDu072L (antibody, name in Kabat numbering, V domains shown)
VH: QVQLVESGGGLVQPGRSLRLSCAASGFTFSNAWMHWVRQAPGKGLEWVAQIKDKGNAYAAYYAPSVKGRFTISRDDSKNSIYLQMNSLKTEDTAVYYCHYVHYYSASTVLPAFGVDAWGQGTTVTVSS
VL: DIVMTQSPLSLPVTPGEPASISCQASQELVHMNRNTYLHWYQQKPGQAPRLLIYKVSNRFPGVPDRFSGSGSGTDFTLKISRVEAEDVGVYYCAQGTSVPFTFGQGTKLEIK
B6: dBBDu183H A100H/dBBDu072L (antibody, name in Kabat numbering, V domains shown)
VH: QVQLVESGGGLVQPGRSLRLSCAASGFTFSNAWMHWVRQAPGKGLEWVAQIKDKGNAYAAYYAPSVKGRFTISRDDSKNSIYLQMNSLKTEDTAVYYCHYVHYASHSTVLPAFGVDAWGQGTTVTVSS
VL: DIVMTQSPLSLPVTPGEPASISCQASQELVHMNRNTYLHWYQQKPGQAPRLLIYKVSNRFPGVPDRFSGSGSGTDFTLKISRVEAEDVGVYYCAQGTSVPFTFGQGTKLEIK
B7: dBBDu183H A98D/dBBDu072L (antibody, name in Kabat numbering, V domains shown)
VH: QVQLVESGGGLVQPGRSLRLSCAASGFTFSNAWMHWVRQAPGKGLEWVAQIKDKGNAYAAYYAPSVKGRFTISRDDSKNSIYLQMNSLKTEDTAVYYCHYVHYDSASTVLPAFGVDAWGQGTTVTVSS
VL: DIVMTQSPLSLPVTPGEPASISCQASQELVHMNRNTYLHWYQQKPGQAPRLLIYKVSNRFPGVPDRFSGSGSGTDFTLKISRVEAEDVGVYYCAQGTSVPFTFGQGTKLEIK
B8: dBBDu183H A98Q/dBBDu072L (antibody, name in Kabat numbering, V domains shown)
VH: QVQLVESGGGLVQPGRSLRLSCAASGFTFSNAWMHWVRQAPGKGLEWVAQIKDKGNAYAAYYAPSVKGRFTISRDDSKNSIYLQMNSLKTEDTAVYYCHYVHYQSASTVLPAFGVDAWGQGTTVTVSS
VL: DIVMTQSPLSLPVTPGEPASISCQASQELVHMNRNTYLHWYQQKPGQAPRLLIYKVSNRFPGVPDRFSGSGSGTDFTLKISRVEAEDVGVYYCAQGTSVPFTFGQGTKLEIK
B9: dBBDu183H A98V/dBBDu072L (antibody, name in Kabat numbering, V domains shown)
VH: QVQLVESGGGLVQPGRSLRLSCAASGFTFSNAWMHWVRQAPGKGLEWVAQIKDKGNAYAAYYAPSVKGRFTISRDDSKNSIYLQMNSLKTEDTAVYYCHYVHYVSASTVLPAFGVDAWGQGTTVTVSS
VL: DIVMTQSPLSLPVTPGEPASISCQASQELVHMNRNTYLHWYQQKPGQAPRLLIYKVSNRFPGVPDRFSGSGSGTDFTLKISRVEAEDVGVYYCAQGTSVPFTFGQGTKLEIK
B10: dBBDu183H A98S/dBBDu072L (antibody, name in Kabat numbering, V domains shown)
VH: QVQLVESGGGLVQPGRSLRLSCAASGFTFSNAWMHWVRQAPGKGLEWVAQIKDKGNAYAAYYAPSVKGRFTISRDDSKNSIYLQMNSLKTEDTAVYYCHYVHYSSASTVLPAFGVDAWGQGTTVTVSS
VL: DIVMTQSPLSLPVTPGEPASISCQASQELVHMNRNTYLHWYQQKPGQAPRLLIYKVSNRFPGVPDRFSGSGSGTDFTLKISRVEAEDVGVYYCAQGTSVPFTFGQGTKLEIK
B11: dBBDu183H A100F/dBBDu072L (antibody, name in Kabat numbering, V domains shown)
VH: QVQLVESGGGLVQPGRSLRLSCAASGFTFSNAWMHWVRQAPGKGLEWVAQIKDKGNAYAAYYAPSVKGRFTISRDDSKNSIYLQMNSLKTEDTAVYYCHYVHYASFSTVLPAFGVDAWGQGTTVTVSS
VL: DIVMTQSPLSLPVTPGEPASISCQASQELVHMNRNTYLHWYQQKPGQAPRLLIYKVSNRFPGVPDRFSGSGSGTDFTLKISRVEAEDVGVYYCAQGTSVPFTFGQGTKLEIK
B12: dBBDu183H A98W/dBBDu072L (antibody, name in Kabat numbering, V domains shown)
VH: QVQLVESGGGLVQPGRSLRLSCAASGFTFSNAWMHWVRQAPGKGLEWVAQIKDKGNAYAAYYAPSVKGRFTISRDDSKNSIYLQMNSLKTEDTAVYYCHYVHYWSASTVLPAFGVDAWGQGTTVTVSS
VL: DIVMTQSPLSLPVTPGEPASISCQASQELVHMNRNTYLHWYQQKPGQAPRLLIYKVSNRFPGVPDRFSGSGSGTDFTLKISRVEAEDVGVYYCAQGTSVPFTFGQGTKLEIK
B13: dBBDu183H A98G/dBBDu072L (antibody, name in Kabat numbering, V domains shown)
VH: QVQLVESGGGLVQPGRSLRLSCAASGFTFSNAWMHWVRQAPGKGLEWVAQIKDKGNAYAAYYAPSVKGRFTISRDDSKNSIYLQMNSLKTEDTAVYYCHYVHYGSASTVLPAFGVDAWGQGTTVTVSS
VL: DIVMTQSPLSLPVTPGEPASISCQASQELVHMNRNTYLHWYQQKPGQAPRLLIYKVSNRFPGVPDRFSGSGSGTDFTLKISRVEAEDVGVYYCAQGTSVPFTFGQGTKLEIK
B14: dBBDu183H A98F/dBBDu072L (antibody, name in Kabat numbering, V domains shown)
VH: QVQLVESGGGLVQPGRSLRLSCAASGFTFSNAWMHWVRQAPGKGLEWVAQIKDKGNAYAAYYAPSVKGRFTISRDDSKNSIYLQMNSLKTEDTAVYYCHYVHYFSASTVLPAFGVDAWGQGTTVTVSS
VL: DIVMTQSPLSLPVTPGEPASISCQASQELVHMNRNTYLHWYQQKPGQAPRLLIYKVSNRFPGVPDRFSGSGSGTDFTLKISRVEAEDVGVYYCAQGTSVPFTFGQGTKLEIK
B15: dBBDu183H A100D/dBBDu072L (antibody, name in Kabat numbering, V domains shown)
VH: QVQLVESGGGLVQPGRSLRLSCAASGFTFSNAWMHWVRQAPGKGLEWVAQIKDKGNAYAAYYAPSVKGRFTISRDDSKNSIYLQMNSLKTEDTAVYYCHYVHYASDSTVLPAFGVDAWGQGTTVTVSS
VL: DIVMTQSPLSLPVTPGEPASISCQASQELVHMNRNTYLHWYQQKPGQAPRLLIYKVSNRFPGVPDRFSGSGSGTDFTLKISRVEAEDVGVYYCAQGTSVPFTFGQGTKLEIK
B16: dBBDu183H A100G/dBBDu072L (antibody, name in Kabat numbering, V domains shown)
VH: QVQLVESGGGLVQPGRSLRLSCAASGFTFSNAWMHWVRQAPGKGLEWVAQIKDKGNAYAAYYAPSVKGRFTISRDDSKNSIYLQMNSLKTEDTAVYYCHYVHYASGSTVLPAFGVDAWGQGTTVTVSS
VL: DIVMTQSPLSLPVTPGEPASISCQASQELVHMNRNTYLHWYQQKPGQAPRLLIYKVSNRFPGVPDRFSGSGSGTDFTLKISRVEAEDVGVYYCAQGTSVPFTFGQGTKLEIK
B17: dBBDu183H A98K/dBBDu072L (antibody, name in Kabat numbering, V domains shown)
VH: QVQLVESGGGLVQPGRSLRLSCAASGFTFSNAWMHWVRQAPGKGLEWVAQIKDKGNAYAAYYAPSVKGRFTISRDDSKNSIYLQMNSLKTEDTAVYYCHYVHYKSASTVLPAFGVDAWGQGTTVTVSS
VL: DIVMTQSPLSLPVTPGEPASISCQASQELVHMNRNTYLHWYQQKPGQAPRLLIYKVSNRFPGVPDRFSGSGSGTDFTLKISRVEAEDVGVYYCAQGTSVPFTFGQGTKLEIK
B18: dBBDu183H A98N/dBBDu072L (antibody, name in Kabat numbering, V domains shown)
VH: QVQLVESGGGLVQPGRSLRLSCAASGFTFSNAWMHWVRQAPGKGLEWVAQIKDKGNAYAAYYAPSVKGRFTISRDDSKNSIYLQMNSLKTEDTAVYYCHYVHYNSASTVLPAFGVDAWGQGTTVTVSS
VL: DIVMTQSPLSLPVTPGEPASISCQASQELVHMNRNTYLHWYQQKPGQAPRLLIYKVSNRFPGVPDRFSGSGSGTDFTLKISRVEAEDVGVYYCAQGTSVPFTFGQGTKLEIK
B19: dBBDu183H A98E/dBBDu072L (antibody, name in Kabat numbering, V domains shown)
VH: QVQLVESGGGLVQPGRSLRLSCAASGFTFSNAWMHWVRQAPGKGLEWVAQIKDKGNAYAAYYAPSVKGRFTISRDDSKNSIYLQMNSLKTEDTAVYYCHYVHYESASTVLPAFGVDAWGQGTTVTVSS
VL: DIVMTQSPLSLPVTPGEPASISCQASQELVHMNRNTYLHWYQQKPGQAPRLLIYKVSNRFPGVPDRFSGSGSGTDFTLKISRVEAEDVGVYYCAQGTSVPFTFGQGTKLEIK
B20: dBBDu183H A100E/dBBDu072L (antibody, name in Kabat numbering, V domains shown)
VH: QVQLVESGGGLVQPGRSLRLSCAASGFTFSNAWMHWVRQAPGKGLEWVAQIKDKGNAYAAYYAPSVKGRFTISRDDSKNSIYLQMNSLKTEDTAVYYCHYVHYASESTVLPAFGVDAWGQGTTVTVSS
VL: DIVMTQSPLSLPVTPGEPASISCQASQELVHMNRNTYLHWYQQKPGQAPRLLIYKVSNRFPGVPDRFSGSGSGTDFTLKISRVEAEDVGVYYCAQGTSVPFTFGQGTKLEIK

The assay deals with T1, Human CD3eg linker (human).
T1 construct: single-chain construct; also called recombinant human CD3
T1 chain: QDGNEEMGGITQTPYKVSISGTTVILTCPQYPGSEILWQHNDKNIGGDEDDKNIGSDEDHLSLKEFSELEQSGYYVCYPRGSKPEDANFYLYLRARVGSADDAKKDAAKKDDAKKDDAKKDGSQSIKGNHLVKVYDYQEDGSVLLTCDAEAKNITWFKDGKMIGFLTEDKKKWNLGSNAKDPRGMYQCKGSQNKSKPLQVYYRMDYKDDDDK
Put plainly: SPR, vs unmutated H183/L072. Background: In SPR one partner is held on a chip, and binding of the other changes the refractive index at the surface.
Take B1: the “fold change of affinity” value came to 1.8 fold. The figure for B2 is 2.7 fold. In the case of B3 it was 2 fold. The figure for B4 is 5.9 fold. As for B5, the “fold change of affinity” value was 25.1 fold.

As for B6, the “fold change of affinity” value stood at 1.2 fold.

Take B7: the “fold change of affinity” value worked out at 0.4 fold.

On to B8, for which the “fold change of affinity” value amounted to 0.7 fold.

Take B9: the “fold change of affinity” value came out at 4.7 fold. The figure for B10 is 1 fold. As to B11, the “fold change of affinity” value stood at 1.4 fold. With B12, the “fold change of affinity” value was 7 fold. The figure for B13 is 1.4 fold; for B14 it is 12.1 fold; for B15 it is 0.5 fold. The figure for B16 is 1.4 fold; for B17 it is 4.6 fold; for B18 it is 1.5 fold. In the case of B19 it was 0.3 fold.

For B20, the “fold change of affinity” value came to 0.5 fold.
